According to the nanobody polyreactivity screen of Harvey et al. (2022):

Test: yeast display, Sf9 membrane polyspecificity reagent, FACS + sequencing; frameworks hold sequencing errors
In short: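 Using colony PCR, genes from sorted yeast display clones were amplified, then sequenced on MiSeq at 2 × 250 and filtered by CDR length. The clones had been stained with 10% biotinylated, detergent-solubilized Sf9 membrane reagent for 1 hour at 4 °C and sorted by FACS into low and high (top ~1%) gates on anti-HA and streptavidin fluorescence. Polyreactivity labels come from the gate of origin.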

Row | Sequence | polyreactivity (PSR sort gate)
1 | QVQLVESGGGLVQAGGSLRLSCAASGSIFWSYAMGWYRQAPGKERELVASITRSGGSTYYADSVKGRFTISRDNAKNTVYLQMNSLKPEDTAVYYCNARRTTRWGSSKYEYDYWGQGTQVTVSS | high polyreactivity
2 | QVQLVESGGGLVQAGGSLRLSCAASGSIFWVNAMGWYRQAPGKERELVAAITWSAGSTYYADSVKGRFTISRDNANNTVYLQMNSLKPEDTAVYYFAAGVAWYYWTLDYWGQGTQVTVSS | low polyreactivity
3 | QVQLVESGGGLVQAGGSLRLSCAASGSIFWVYAMGWYRQAPGKERELVAAISNSGSTNYADSVKGRFTISRDNAKNTVYLQMNSLKPEDTAVYYCAKDSLVDHVGGYDYWGQGTQVTVSS | low polyreactivity
4 | QVQLVESGGGLVQAGGSLRLSCAASGSIFWWNAKGWYRQAPGKERELVAAINWSTGRTYYADSVKGRFTISRDNAKNTVYLQMNSLKPEDTAVYYCNADSKSSYYWYLWYNYWGQGTQVTVSS | low polyreactivity
5 | QVQLVESGGGLVQAGGSLRLSCAASGSIFWYAMGWYRQAPGKETELVAAISRGGSTYYADSVKGRFTISRDNAKNTVFLEMYRLKPEDTAVYYCATAYRYPRNAYFQRMDSWGQGTQVTVSS | high polyreactivity
6 | QVQLVESGGGLVQAGGSLRLSCAASGSIFWYYAMGWYRQAPGKERELVASISRRGGSTYYADSVKGRFTISRDNAKNTVYLQMNSLKPEDTAVYYCAAYSRTTCSTVQGTYDYWGQGTQVTVSA | low polyreactivity
7 | QVQLVESGGGLVQAGGSLRLSCAASGSIFWYYAMGWYRQAPGKERELVASISSGGSTTYADSVKGRFTISCDNAKNTVYLQMISLKPEDTAVYYCNADYFGGGDYWGQGTQVTVSS | low polyreactivity
8 | QVQLVESGGGLVQAGGSLRLSCAASGSIFWYYAMGWYRQAPGKERELVASITSGGSTNYADSVKGRFTISRDNAKNTVYLQMISLKPEDTAVYYCNTDDDSSSTGYYSWGQGTQVTVSS | low polyreactivity
9 | QVQLVESGGGLVQAGGSLRLSCAASGSIFYANAMGWYRQAPRKERELVAAISWSGGRTYYADSVKGRFTISRDNAKNTVYLQMISLKPEDTAVYFCAAVTRGLRFVYWGQGTQVTVSS | high polyreactivity
10 | QVQLVESGGGLVQAGGSLRLSCAASGSIFYANAMGWYSQAPGKERELVAVISSGGGTYADSVKGRFTISRDNAKNTVYLQMNSLKPEDTAVYYCAADYTRESSMYYWGQGTQVTVSS | low polyreactivity
11 | QVQLVESGGGLVQAGGSLRLSCAASGSIFYDYTMGWYRQAPGKERELVAAITSDGSTYYADSVKGRFTISRDNAKNTVYLQMKSLKPEDTAVYYCAVFSDVFLYYYGETYDYWGQGTQVTVSS | high polyreactivity
12 | QVQLVESGGGLVQAGGSLRLSCAASGSIFYFNAMGWYRQAPGKEMELVATIRSGDGRTYYADSVKGRFTISRDNAKNTVYLQMNSLKPEDTAVYYCNASRVVYRQAYLYGYDYWGQGTQVTVSS | low polyreactivity
13 | QVQLVESGGGLVQAGGSLRLSCAASGSIFYFNAMGWYRQAPGKERELVAAINSGGSTYYADSVKGRFTISRDNAKNTVYLQMNSLKPEDTAVYYCAAVKVDYYITMYYWGQGTQVTVSS | high polyreactivity
14 | QVQLVESGGGLVQAGGSLRLSCAASGSIFYFNAMGWYRQAPGKERELVASITSGGSTNYADSVKGRFTISRDNAKNTVYLQMNSLKPEDTAVYYCNKRVHYIAGRGYDYWGQGNQVTVSS | low polyreactivity
15 | QVQLVESGGGLVQAGGSLRLSCAASGSIFYFNAMGWYRQAPGKERQLVAAITSGGNTYYADSVKGRFTISRDNAKNTVYLQMNSLKPEDTAVYYCAKRGFRFPYPSLDYWGQGTQVTVSS | low polyreactivity
16 | QVQLVESGGGLVQAGGSLRLSCAASGSIFYFYAMGWYRQAPGKERELVASIRWSCGRTRYADSVKGRFTISRDNAKNTVYLQMNSLKPEDTAVYYCAARGGGRPYDYWGQGTQVTVSS | high polyreactivity
17 | QVQLVESGGGLVQAGGSLRLSCAASGSIFYFYTMGWYRQAPGKERELVAAISGGGGSTYYADSVTGRFTISRDNAKNTVYLQMNSLKPEDTAVYYCAADGAGWLDYGYWGQGTQVTVSS | low polyreactivity
18 | QVQLVESGGGLVQAGGSLRLSCAASGSIFYGNAMGWYRQAPGKERELVAAISARGGSTNYADSVKGRFTISRDNAKNTVYLQMNSLKPEDTSVYYCAADTPVWSGYWYYYWGQGTQVTVSS | low polyreactivity
19 | QVQLVESGGGLVQAGGSLRLSCAASGSIFYGNAMGWYRQAPGKERELVAAISKRGGSTYYADSVKGRFTISRDKAKNSVYLQMNSLKPEDTAVYYCAKATAGHTEYYYWGQGTQVTVSS | high polyreactivity
20 | QVQLVESGGGLVQAGGSLRLSCAASGSIFYGNAMGWYRQAPGKERELVADITWSGGSTYYADSVKGRFTISRDNAKNTVYLQMNSLKPEDTAVYYCAAKVKHWYYPYYYWGQGTQVTVSS | low polyreactivity
21 | QVQLVESGGGLVQAGGSLRLSCAASGSIFYGNAMGWYRQAPGKERELVAGISWSGGSTYYADSVKGRFTISRDNAKNTVYFQMNSLKPEDTAVYYCATVADEPRAYSGYEESDYWGQGTQVTVSS | low polyreactivity
22 | QVQLVESGGGLVQAGGSLRLSCAASGSIFYGNAMGWYRQAPGKERELVAGISWSGGSTYYADSVKGRFTISRDNAKYTVYLQMNSLKPEDTAVYYCATVADEPRAYSGYEESDYWGQGTQVTVSS | low polyreactivity

Row | Sequence | polyreactivity (PSR sort gate)
23 | QVQLVESGGGLVQAGGSLRLSCAASGSIFYGNTMGWYRQEPGKERELVAPIRSVGRTYYADSVKGRYTISRDNAKNTVYLQMYSLKPEDTAVYYCAADPRSYFTSEYWGQGTQVTVSS | high polyreactivity
24 | QVQLVESGGGLVQAGGSLRLSCAASGSIFYGYAMGWYRQAPGKEREFVAAITWSGGSTHYADSVKGRFTNSRDNAKNTVYVQMNSLKPEDTAVYYCAAPSYGNYPYRSYVWYGYWGQGTQVTVSS | high polyreactivity
25 | QVQLVESGGGLVQAGGSLRLSCAASGSIFYGYAMGWYRQAPGKEREFVASINSGVGSTYYADSVKGRFTISRDNAKNTVYLQMNSLKPEDTAVYYCNKVHRSFTYNDGQTPAYDYWGQGTQVTVSS | low polyreactivity
26 | QVQLVESGGGLVQAGGSLRLSCAASGSIFYGYAMGWYRQAPGKERELVAAISSSGGTTYYADSVKGRFTISRDNAKNTVYLQMNSLKPEDTAVYYCAALGGYYYRTRYNGDYWGHGTQVTVSS | high polyreactivity
27 | QVQLVESGGGLVQAGGSLRLSCAASGSIFYGYAMGWYRQAPGKERELVAGISNGGSTNYADSVKGRFTISRDNAKNTVYLQLNSLKPEDTAVYYCNATYYSAYSYLYGYWGQGTQVTVSS | low polyreactivity
28 | QVQLVESGGGLVQAGGSLRLSCAASGSIFYGYAMGWYRQAPGKERELVAVITDGGGSTYYADSVKGRFTISRDNAMNTVYLQMNSLKPEDTAVYYCNRVFPPTDYEFDSWGQGTQLTVSS | low polyreactivity
29 | QVQLVESGGGLVQAGGSLRLSCAASGSIFYGYAMGWYRQAPGTERELVAALSWSDGITYYADSVKGRFTISRDNGKNTGYLQMKNLKPEDTAVYSCAAEYGQYGYDYWGKGTQVTVSS | high polyreactivity
30 | QVQLVESGGGLVQAGGSLRLSCAASGSIFYGYARGWYRQAPGKERELVASITSSGGSTYYADSVKGRFTISRDNAKNTDYLQMNSLKPEDSAVYYCAVIGYHYSAISPPSQTRQGYDYWGQVTQVTVSS | low polyreactivity
31 | QVQLVESGGGLVQAGGSLRLSCAASGSIFYGYDMGWYRQAPGKERELVAAISRSGGSTYYADSVKGRFTISRDNAKNTVYLQMNSLKPEDTAVSYCNAYPVTFVYYVGDGYWGQGTQVTVSS | high polyreactivity
32 | QVQLVESGGGLVQAGGSLRLSCAASGSIFYGYTMGWYRQEPGKERELVAAIRKSGGSTNYADSVKGRFTISRDNAKNTVYLQMNSLKPEDTAVFYCAAAYYRGRGYYWGQGTQVTESS | high polyreactivity
33 | QVQLVESGGGLVQAGGSLRLSCAASGSIFYHNAMGRYRQAPGKERELVAAITGSGGSTYYADAVKGRFTISRDKAKNTVYFQMNSLKPEDTAVYDCAADGYTKWWISWGYDYWGQGTQVTVSS | low polyreactivity
34 | QVQLVESGGGLVQAGGSLRLSCAASGSIFYHNAMGWYRQAPGKERELVAAISSSGGNTYYADSVKGRFTISRDNAKNTVYLQLNSLKPEDTAVYYCNKGFSYRSGRGYWGQGTQVTVSS | high polyreactivity
35 | QVQLVESGGGLVQAGGSLRLSCAASGSIFYHNAMGWYRQAPGKERELVAAITWSGSTTYYADSVKGRFTISRDNAKNTVYLQMKSLKPEDTAVYYCNAGNRHGHYDYWGQGTQVTVSS | low polyreactivity
36 | QVQLVESGGGLVQAGGSLRLSCAASGSIFYHNAMGWYSPAPGKERELVAAISASGSTYYADSVKGRFTISRDNAKNTVSLQMNSLKTEDTAVYYCTFYWYNYWGQGTQVTVSS | high polyreactivity
37 | QVQLVESGGGLVQAGGSLRLSCAASGSIFYHYAMGWYRQAPGKERELVAAISDRGTSTYYADSVKGRFTISRDNAKNTVYLQMNSLKPEDTAVYYCAAEGSLNSFYYSYYYWGQGTQVTVSS | high polyreactivity
38 | QVQLVESGGGLVQAGGSLRLSCAASGSIFYINAMGWYRQAPGKERELVAAITSDGSTYYADSVKGRFTISRDNAKNTVYLQMNSLKPEDTAVYYCAADLTSDQYLYYWYWFYSWGQGTQVTVSS | low polyreactivity
39 | QVQLVESGGGLVQAGGSLRLSCAASGSIFYINDMGWYRQAPGKERELVASINSSGDSTYYADSVKGRFTISRDNAKNTVYLQMNSLKPEDTAVYYCAADDGYPIQEYDYWGQGTQVTVSS | low polyreactivity
40 | QVQLVESGGGLVQAGGSLRLSCAASGSIFYIYAMGWYRQAPGKERELVAGINGGGASTYYADSVKGRFTISRDNAKNTVYLQMNSLKPEDTAVYYCAADIRYLGEYWGQGTQVTVSS | low polyreactivity
41 | QVQLVESGGGLVQAGGSLRLSCAASGSIFYKNAMGWYRQAPGKERELVAAISSSGGSTRYADSVKGRFTISRDNSKNTVSLQMNSLKPEDTAVYYCAASGSRTSRGYWGQGTQVTVSS | high polyreactivity
42 | QVQLVESGGGLVQAGGSLRLSCAASGSIFYKYAMGWYRQAPGKERELVATIRASGGRTYYADSVKGRFTISRDNAKNTVYLQMNSLKPEDTAVYYCAKYTTRGVYRSWPKDMDYWGQGTQVTVSS | low polyreactivity
43 | QVQLVESGGGLVQAGGSLRLSCAASGSIFYLYAMGWYRQAPGKERDVVAAITWRGGITNYADSVKGRFTISRYNAKNTVYLQMNSLKPEVTAVYYCAADPYRFLATELYYWGQGTQVTVSS | low polyreactivity
